Measurements: patent US10550151B2, “Cell-penetrating compositions and methods using same” (Yale University, priority 2013, dated 2020)
Where no end group is shown, it is not given here.

Assays:
eNOS = molecular target: T1, eNOS (Bos taurus, UniProt P29473); assay: VEGF-induced NO release by cultured BAEC (NO chemiluminescence); type: cell-based, bovine; settings: for inhibition of VEGF-induced NO release: 6 h pretreatment; for effect on basal (unstimulated) NO release: six-hour pretreatment, no VEGF
T1 construct: effect of Endo5 fused to Cav (endo5-Cav) on NO release by cultured BAEC; endogenous in cells; host or cells: BAEC (cultured endothelial cells)
T1 sequence (P29473 2-1205 limits assumed): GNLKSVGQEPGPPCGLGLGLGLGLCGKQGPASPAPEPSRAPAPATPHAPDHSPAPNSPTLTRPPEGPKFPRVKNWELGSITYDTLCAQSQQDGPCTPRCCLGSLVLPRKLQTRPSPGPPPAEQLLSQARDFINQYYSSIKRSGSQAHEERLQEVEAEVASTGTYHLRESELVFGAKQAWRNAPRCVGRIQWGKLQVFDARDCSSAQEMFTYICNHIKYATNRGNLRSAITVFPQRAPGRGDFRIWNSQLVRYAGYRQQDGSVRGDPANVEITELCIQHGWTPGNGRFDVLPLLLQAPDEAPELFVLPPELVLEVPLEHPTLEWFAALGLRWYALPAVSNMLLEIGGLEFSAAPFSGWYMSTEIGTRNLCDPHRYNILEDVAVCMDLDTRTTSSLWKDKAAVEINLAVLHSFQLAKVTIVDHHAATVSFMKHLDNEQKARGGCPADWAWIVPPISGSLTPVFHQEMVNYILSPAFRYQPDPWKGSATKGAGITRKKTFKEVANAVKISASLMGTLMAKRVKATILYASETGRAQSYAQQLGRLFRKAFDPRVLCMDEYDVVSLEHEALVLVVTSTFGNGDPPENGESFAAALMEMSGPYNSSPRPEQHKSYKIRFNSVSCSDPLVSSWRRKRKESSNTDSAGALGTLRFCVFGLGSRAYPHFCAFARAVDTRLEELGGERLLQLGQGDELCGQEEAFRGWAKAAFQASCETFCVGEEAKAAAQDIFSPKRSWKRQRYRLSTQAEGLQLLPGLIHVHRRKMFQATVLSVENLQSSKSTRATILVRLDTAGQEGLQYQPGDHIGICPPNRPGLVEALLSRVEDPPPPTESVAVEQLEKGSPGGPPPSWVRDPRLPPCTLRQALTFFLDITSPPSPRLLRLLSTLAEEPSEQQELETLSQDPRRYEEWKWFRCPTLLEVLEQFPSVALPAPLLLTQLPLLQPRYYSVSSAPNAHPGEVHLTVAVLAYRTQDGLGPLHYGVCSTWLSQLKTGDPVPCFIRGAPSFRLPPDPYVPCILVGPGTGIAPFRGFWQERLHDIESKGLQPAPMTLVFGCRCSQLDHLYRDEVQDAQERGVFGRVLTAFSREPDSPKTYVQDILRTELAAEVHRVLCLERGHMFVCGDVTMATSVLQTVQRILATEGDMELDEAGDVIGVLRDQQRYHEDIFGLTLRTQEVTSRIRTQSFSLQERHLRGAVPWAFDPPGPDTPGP
Method: Briefly, confluent BAEC were incubated in serum-free DMEM for 6 hours with peptides. Media was removed and fresh serum-free DMEM was added, with or without VEGF (10^−9 M) for 30 min. Media was collected, cells were trypsinized and counted, and nitrites levels in the supernatant were determined by using a Sievers NO chemiluminescence analyzer.
AP-Cav blocks agonist-induced eNOS activity in cultured endothelial cells (Bucci et al., 2000, Nat. Med. 6:1362-7), and this biological activity is dependent on AP-Cav's internalization, dosage and pretreatment time. In the present study, the uptake potential of Endo5 was compared with that of AP by testing the effect of Endo5 fused to Cav (endo5-Cav) on NO release by cultured BAEC.

HUVEC = assay: CPP imaging in live HUVEC (epifluorescence, pulse/chase); type: cell-based, human; settings: for staining pattern after 1 h pulse: 37° C.; for staining pattern after two-hour chase: 2 h chase in absence of CPP
Method: Freshly isolated HUVEC were grown in M199 media supplemented with glutamine, 10% FBS and endothelial cell growth supplement on Petri dishes with glass bottom. Since CPPs bind non-specifically to glass, the background fluorescence was reduced by pretreating glass-bottom Petri dishes with a blocking solution containing unlabelled AP and Endo5 for 30 min (5×10^−5 M) in colorless M199 media with 1% FBS. After cell seeding, media was removed and carboxyfluorescin-labeled Endo5 and Rhodamine-labeled AP were added to cells (10^−5 M) and cells were incubated at 37° C. and 5% CO2 for 1 hour (pulse). Media was removed, cells were rinsed once with warm culture media and peptide uptake was rapidly visualized on a Zess Axiovert inverted fluorescence microscope by performing a Z-stack of captured images followed by volume deconvolution (Openlab software). The new media was left on cells for an additional 2 hours (total 3 hours) to chase CPP localization, and cells were visualized again (chase).
In the present study, epifluorescence microscopy experiments were performed in live HUVEC to compare the uptake mechanism of Endo5 to AP. After blocking glass bottom Petri dishes with unlabelled AP and Endo5 to minimize non-specific binding of labeled peptides, freshly isolated HUVEC were grown to 50% confluent and labeled with a “pulse” of carboxyfluorescein-Endo5 and rhodamine-AP (10^−6M) for 1 h, rinsed, followed by a two-hour “chase” for a total of 3 hours. Deconvoluted images were captured after the “pulse” and “chase” periods. […] (FIG. 5A). Nuclear staining was nearly completely absent (dark central area).

[1] = Peptide solubility in NO release dose-response experiment; type: physicochemical; settings: above 2.5×10^-5 M
[2] = peptide 10^-5 M, VEGF 10^-9 M 30 min

Row | Substance | inhibition of VEGF-induced NO release (eNOS; peptide 2×10^-6 M) | inhibition of VEGF-induced NO release (eNOS; [2]) | staining pattern after 1 h pulse (HUVEC) | staining pattern after two-hour chase (HUVEC) | effect on basal (unstimulated) NO release (eNOS; peptide 10^-5 M) | solubility limit [1]
1 | Endo5-CavAB: Endo5 fused to the Cav AB domain (caveolin-1 amino acids 82-95, SEQ ID NO: 6); a 19-mer peptide (RRPPRDGIWKASFTTFTVT) | 49% | completely blocked |  |  |  | 
2 | RQIKIWFQNRRMKWKK [AP, reference compound] |  | no significant effect | diffuse punctate cytoplasmic staining | more concentrated rather than diffuse pattern | no significant effect | 
3 | RQIKIWFQNRRMKWKKDGIWKASFTTFTVTKYWFYR [AP-Cav] |  |  |  |  |  | peptide insolubility at greater dose
4 | RRPPR [Endo5, short five-amino acid cell-permeable peptide] |  | no significant effect | diffuse punctate cytoplasmic staining | more concentrated rather than diffuse pattern | no significant effect | 
